Molecular target: NS3pro protease of dengue virus 2 (strain S16803) (dengue virus 2 (strain S16803))
Experiment: cell-based or functional assay

## YGRKKRRQRRRPPQGGGSSPILSITISEDG [peptide NS2Bden2+TAT (peptide 1 of table 1)]
  IC50 of inhibition of DV2 infection, plaque reduction neutralization assay in Vero cells: 50 to 60 µM

Source: US8674063 (CENTRO DE INGENIERIA GENETICA Y BIOTECNOLOGIA, dated 2014)
